Laboratory results as given in US7255862.

What was measured:
[1] = biological target: feline immunodeficiency virus (FIV) Gag, Villefranche strain, expressed by ALVAC recombinants (vCP21 (feline immunodeficiency virus, Villefranche strain)); assay: sandwich kinetic ELISA, plate coated with pooled FIV env-specific MAb 2 ug/well (mismatched capture control), gag lysate 0.2 ug/well, control rabbit serum 1:100
[2] = biological target: feline immunodeficiency virus (FIV) Gag, Villefranche strain, expressed by ALVAC recombinants (vCP21 (feline immunodeficiency virus, Villefranche strain)); assay: sandwich kinetic ELISA, plate coated with pooled FIV gag-specific MAb 2 ug/well, gag lysate 1 ug/well, control rabbit serum 1:100
[3] = biological target: feline immunodeficiency virus (FIV) Gag, Villefranche strain, expressed by ALVAC recombinants (vCP21 (feline immunodeficiency virus, Villefranche strain)); assay: sandwich kinetic ELISA, plate coated with pooled FIV env-specific MAb 2 ug/well (mismatched capture control), gag lysate 1 ug/well, control rabbit serum 1:100
[4] = biological target: feline immunodeficiency virus (FIV) Gag, Villefranche strain, expressed by ALVAC recombinants (vCP21 (feline immunodeficiency virus, Villefranche strain)); assay: sandwich kinetic ELISA, plate coated with pooled FIV gag-specific MAb 2 ug/well, gag lysate 0.2 ug/well, control rabbit serum 1:100
[5] = biological target: feline immunodeficiency virus (FIV) Gag, Villefranche strain, expressed by ALVAC recombinants (vCP21 (feline immunodeficiency virus, Villefranche strain)); assay: sandwich kinetic ELISA, plate coated with pooled FIV gag-specific MAb 2 ug/well, gag lysate 5 ug/well, control rabbit serum 1:100
[6] = biological target: feline immunodeficiency virus (FIV) Gag, Villefranche strain, expressed by ALVAC recombinants (vCP21 (feline immunodeficiency virus, Villefranche strain)); assay: sandwich kinetic ELISA, plate coated with pooled FIV env-specific MAb 2 ug/well (mismatched capture control), gag lysate 5 ug/well, control rabbit serum 1:100

## Rabbit A039 prebleed serum
[1]
  KELISA (mOD/min): 0.9 mOD/min
[2]
  KELISA (mOD/min): 1.2 mOD/min
[3]
  KELISA (mOD/min): 0.8 mOD/min
[4]
  KELISA (mOD/min): 1.3 mOD/min
[5]
  KELISA (mOD/min): 1 mOD/min
[6]
  KELISA (mOD/min): 1 mOD/min
